Here are results for 1 substance from paper PMC7834972.

For this assay, the target named is SARS-CoV-2 S-I53-50A.1NT1 fusion protein (SARS-CoV-2). Put plainly: SEC; Superose 6 increase 10/300 GL in TBS with 5% glycerol; fractions between 12-14 mL pooled; blue native gel of the pooled fractions. (Size exclusion chromatography separates by hydrodynamic size, large species first.)

As for “SARS-CoV-2 S-I53-50A.1NT1 fusion protein”, the stoichiometry N – broadly, a count of units in the complex or per binding partner – stood at 3.
